Source: article PMC3859194

Tests used:
[1] = target: 6His-PopZ P146A (Caulobacter crescentus); test: SEC-MALLS
[2] = target: 6His-PopZΔ172–177 (Caulobacter crescentus); test: SEC-MALLS

Substance | stoichiometry N [1] | stoichiometry N [2]
6His-PopZ P146A (natural protein) | 3 | 
6His-PopZΔ172–177 (domain or fragment) |  | 6
